# According to US20170173114A1, “METHODS AND COMPOSITIONS FOR INDUCTION OF UCP1 EXPRESSION” (Joslin Diabetes Center, Inc., priority 2014, published 2017):
# Entries after “also recorded” stand apart in the source; their conditions may differ.
# B1: FGF6: fibroblast growth factor 6; recombinant human FGF from R&D Systems, or mouse FGF6 cDNA overexpressed by lentiviral vector (protein)
# chain: KRQRRLYCNVGIGFHLQVLPDGRISGTHEENPYSLLEISTVERGVVSLFGVRSALFVAMNSKGRLYATPSFQEECKFRETLLPNNYNAYESDLYQGTYIALSKYGRVKRGSKVSPIMTVTHFLPRI
# Legend:
# [1] = test system: UCP1; experiment: High-throughput screen of secreted proteins for UCP1 mRNA induction in committed brown preadipocytes; assay type: cell-based, murine; details: after induction media; secreted protein library
# Method: To identify protein(s) that can induce UCP1 expression in brown preadipocytes, a high-throughput screen was performed using a protein library containing more than 5,000 mammalian secreted proteins (Lin H. et al., Science 320:807-811, 2008) in an immortalized murine brown preadipocyte cell line (Klein J. et al., J. Biol. Chem. 274:34795-34802, 1999; Tseng Y. H. et al., Nat. Cell. Biol. 7:601-611, 2005). The screen included applying induction media to brown preadipocyte cells, resulting in committed brown preadipocytes.
# [2] = test system: WT-1 brown preadipocytes; experiment: Cell proliferation (MTT assay) in WT-1 brown preadipocytes; assay type: cell-based, murine; details: 200 ng/ml; 24 and 72 hours
# Method: FIGS. 4A-4C graphically depict FGF6 induction of UCP1 expression in brown preadipocytes in a dose-dependent and time-regulated manner. Specifically, FIG. 4A depicts a dose-response curve of UCP1 expression by FGF6 at day 7. Numbers above curve indicate fold-increase relative to vehicle control. FIG. 4B depicts the fold-induction of UCP1 by vehicle control (“C”), FGF6 (“F6”) or FGF21 (“F21”) within 24 hours of treatment. FIG. 4C depicts a time-course of UCP1 expression induced by 200 ng/ml of FGF6, compared with cells differentiated in regular induction media. Numbers above curves indicate fold-induction relative to day 0. FIG. 4D depicts the effect of FGF6 on cell proliferation (measured by MTT assay) at 24 and 72 hours.
# The effect of FGF6 on cell proliferation was also evaluated.
# [3] = test system: UCP1; experiment: UCP1 mRNA expression in C2C12 myogenic progenitors; assay type: cell-based; details: three days
# [4] = test system: UCP1; experiment: Marker mRNA expression and culture media acidification in mature brown adipocytes; assay type: cell-based, murine; details: seven days
# Method: The effect of FGF6 on murine mature brown adipocytes was also examined. Mature brown adipocytes were treated with FGF6 in growth media (DMEM+10% FBS), a vehicle control (buffer) (“buffer” referred to in FIG. 22), or BMP7 for seven days. Following the treatment, cells were examined for the color of the culture media in combination with oil Red O staining, expression of adipogenic markers, and expression of brown fat markers.
# mRNA expression of UCP1, PPARγ, PTGS2, NDST3 and SIRT1 was measured in the mature adipocytes exposed to either the control, BMP7, or FGF6.
molecule,measurement,setting,value
B1,UCP1 mRNA expression in committed brown preadipocytes (screen),[1],induced UCP1 mRNA expression
same,effect on cell proliferation,[2],virtually no effect
same,UCP1 mRNA expression in C2C12 myogenic progenitors,[3],neither FGF6 nor FGF21 induced UCP1 mRNA expression; also recorded: no induction of UCP1
same,"acidification of cell culture media, mature brown adipocytes",[4],no acidification of cell culture media
same,UCP1 mRNA expression in mature adipocytes,[4]; vs buffer or BMP7,does not induce
